# Test results taken from US10117916B2, “Peptides and combination of peptides for use in immunotherapy against CLL and other cancers” (immatics biotechnologies GmbH, priority 2015, dated 2018).
# Molecular target: HLA-A*02:01 (Homo sapiens, UniProt P04439, D140Y/D185E/D98H/E176V/E277Q/G131W/G231S/I119V/I121R/I166T/I218V/L300P/L318F/N151K/N90K/P208A/P217A/Q86G/Q94H/R138H/R169H/T345S)
# Experiment: MHC binding assay: UV-ligand exchange with β2m ELISA (peptide exchange yield)
# Settings: MHC class I binding score; binding to HLA-A*02:01 ranged by peptide exchange yield (UV-ligand exchange, β2m ELISA)
# From the text: Candidate peptides for T cell based therapies according to the present invention were further tested for their MHC binding capacity (affinity). The individual peptide-MHC complexes were produced by UV-ligand exchange, where a UV-sensitive peptide is cleaved upon UV-irradiation, and exchanged with the peptide of interest as analyzed. Only peptide candidates that can effectively bind and stabilize the peptide-receptive MHC molecules prevent dissociation of the MHC complexes. To determine the yield of the exchange reaction, an ELISA was performed based on the detection of the light chain (β2m) of stabilized MHC complexes. The assay was performed as generally described in Rodenko et al. (Rodenko et al., 2006).
# 96 well MAXISorp plates (NUNC) were coated over night with 2 ug/ml streptavidin in PBS at room temperature, washed 4× and blocked for 1 h at 37° C. in 2% BSA containing blocking buffer. Refolded HLA-A*02:01/MLA-001 monomers served as standards, covering the range of 15-500 ng/ml. Peptide-MHC monomers of the UV-exchange reaction were diluted 100 fold in blocking buffer. Samples were incubated for 1 h at 37° C., washed four times, incubated with 2 ug/ml HRP conjugated anti-β2m for 1 h at 37° C., washed again and detected with TMB solution that is stopped with […]. Absorption was measured at 450 nm. Candidate peptides that show a high exchange yield (preferably higher than 50%, most preferred higher than 75%) are generally preferred for a generation and production of antibodies or fragments thereof, and/or T cell receptors or fragments thereof, as they show sufficient avidity to the MHC molecules and prevent dissociation of the MHC complexes.
row,Peptide Exchange,Substance
1,″++″ (≥20% = ++),3 (VIAELPPKV; listed as Homo sapiens) [compound 3]
2,″+++″ (≥50 = +++),4 (VIAELPPKVSV; listed as Homo sapiens) [compound 4]
3,″+++″ (≥50 = +++),6 (ALDTLEDDMTI; listed as Homo sapiens) [compound 6]
4,″+++″ (≥50 = +++),7 (ALLERTGYTL; listed as Homo sapiens) [compound 7]
5,″+++″ (≥50 = +++),8 (ALAASALPALV; listed as Homo sapiens) [compound 8]
6,″+++″ (≥50 = +++),9 (ALCDTLITV; listed as Homo sapiens) [compound 9]
7,″+++″ (≥50 = +++),10 (FVYGESVEL; listed as Homo sapiens) [compound 10]
8,″+++″ (≥50 = +++),11 (ALFTFSPLTV; listed as Homo sapiens) [compound 11]
9,″+++″ (≥50 = +++),12 (ALGEDEITL; listed as Homo sapiens) [compound 12]
10,″+++″ (≥50 = +++),13 (VVDGMPPGV; listed as Homo sapiens) [compound 13]
11,″+++″ (≥50 = +++),14 (ALLRLLPGL; listed as Homo sapiens) [compound 14]
12,″+++″ (≥50 = +++),15 (ALPEVSVEA; listed as Homo sapiens) [compound 15]
13,″++++″ (≥75% = ++++),16 (ALPGGAAVAAV; listed as Homo sapiens) [compound 16]
14,″+++″ (≥50 = +++),18 (LLGEFSIKM; listed as Homo sapiens) [compound 18]
15,″+++″ (≥50 = +++),19 (QVMEKLAAV; listed as Homo sapiens) [compound 19]
16,″+++″ (≥50 = +++),20 (ALVDPGPDFVV; listed as Homo sapiens) [compound 20]
17,″+++″ (≥50 = +++),21 (ALWAGLLTL; listed as Homo sapiens) [compound 21]
18,″+++″ (≥50 = +++),22 (ALWDPVIEL; listed as Homo sapiens) [compound 22]
19,″++++″ (≥75% = ++++),23 (ALYLTEVFL; listed as Homo sapiens) [compound 23]
20,″+++″ (≥50 = +++),24 (AMAGDVVYA; listed as Homo sapiens) [compound 24]
21,″++″ (≥20% = ++),25 (ATYSGLESQSV; listed as Homo sapiens) [compound 25]
22,″+++″ (≥50 = +++),27 (AVLGLVWLL; listed as Homo sapiens) [compound 27]
23,″++″ (≥20% = ++),28 (AVLHLLLSV; listed as Homo sapiens) [compound 28]
24,″+++″ (≥50 = +++),29 (AVLQAVTAV; listed as Homo sapiens) [compound 29]
25,″+++″ (≥50 = +++),30 (ELLEGSEIYL; listed as Homo sapiens) [compound 30]

row,Peptide Exchange,Substance
1,″+++″ (≥50 = +++),31 (ELMHGVAGV; listed as Homo sapiens) [compound 31]
2,″+++″ (≥50 = +++),34 (YLPYIFPNI; listed as Homo sapiens) [compound 34]
3,″+++″ (≥50 = +++),35 (FILPSSLYL; listed as Homo sapiens) [compound 35]
4,″++++″ (≥75% = ++++),36 (FILTHVDQL; listed as Homo sapiens) [compound 36]
5,″++++″ (≥75% = ++++),37 (FIMEGGAMVL; listed as Homo sapiens) [compound 37]
6,″+++″ (≥50 = +++),38 (FIMEGGAMV; listed as Homo sapiens) [compound 38]
7,″+++″ (≥50 = +++),39 (FLDALLTDV; listed as Homo sapiens) [compound 39]
8,″++″ (≥20% = ++),40 (FLDEDDMSL; listed as Homo sapiens) [compound 40]
9,″+++″ (≥50 = +++),41 (FLDPSLDPLL; listed as Homo sapiens) [compound 41]
10,″+++″ (≥50 = +++),42 (FLEEGGVVTV; listed as Homo sapiens) [compound 42]
11,″++++″ (≥75% = ++++),43 (FLLGPEALSFA; listed as Homo sapiens) [compound 43]
12,″+++″ (≥50 = +++),44 (FLLSINDFL; listed as Homo sapiens) [compound 44]
13,″+++″ (≥50 = +++),45 (FLPELPADLEA; listed as Homo sapiens) [compound 45]
14,″+++″ (≥50 = +++),46 (YIIDSAQAV; listed as Homo sapiens) [compound 46]
15,″++″ (≥20% = ++),47 (FLSDQPEPYL; listed as Homo sapiens) [compound 47]
16,″+++″ (≥50 = +++),48 (FLSPQQPPLL; listed as Homo sapiens) [compound 48]
17,″+++″ (≥50 = +++),50 (FLFEPVVKAFL; listed as Homo sapiens) [compound 50]
18,″++++″ (≥75% = ++++),51 (FLVEAPHDWDL; listed as Homo sapiens) [compound 51]
19,″++++″ (≥75% = ++++),52 (FLVETGFLHV; listed as Homo sapiens) [compound 52]
20,″+++″ (≥50 = +++),53 (FLWQHVELVL; listed as Homo sapiens) [compound 53]
21,″+++″ (≥50 = +++),55 (FMEPTLLML; listed as Homo sapiens) [compound 55]
22,″+++″ (≥50 = +++),58 (YIQQGIFSV; listed as Homo sapiens) [compound 58]
23,″+++″ (≥50 = +++),59 (FVFGDENGTVSL; listed as Homo sapiens) [compound 59]
24,″+++″ (≥50 = +++),60 (FVLDHEDGLNL; listed as Homo sapiens) [compound 60]
25,″+++″ (≥50 = +++),61 (FVYFIVREV; listed as Homo sapiens) [compound 61]

row,Peptide Exchange,Substance
1,″+++″ (≥50 = +++),62 (GIIDGSPRL; listed as Homo sapiens) [compound 62]
2,″+++″ (≥50 = +++),63 (SLAHVAGCEL; listed as Homo sapiens) [compound 63]
3,″+++″ (≥50 = +++),64 (KLLESVASA; listed as Homo sapiens) [compound 64]
4,″++″ (≥20% = ++),65 (GLDDMKANL; listed as Homo sapiens) [compound 65]
5,″+++″ (≥50 = +++),66 (SLAGGLDDMKA; listed as Homo sapiens) [compound 66]
6,″++″ (≥20% = ++),67 (GLDDVTVEV; listed as Homo sapiens) [compound 67]
7,″+″ (≥10% = +),68 (GLDQQFAGLDL; listed as Homo sapiens) [compound 68]
8,″+++″ (≥50 = +++),70 (FVPDTPVGV; listed as Homo sapiens) [compound 70]
9,″+++″ (≥50 = +++),71 (GLKHDIARV; listed as Homo sapiens) [compound 71]
10,″+++″ (≥50 = +++),72 (GLLDAGKMYV; listed as Homo sapiens) [compound 72]
11,″+++″ (≥50 = +++),73 (GLLEVISALQL; listed as Homo sapiens) [compound 73]
12,″++″ (≥20% = ++),74 (GLLRASFLL; listed as Homo sapiens) [compound 74]
13,″++″ (≥20% = ++),75 (GLSIFAQDLRL; listed as Homo sapiens) [compound 75]
14,″+++″ (≥50 = +++),76 (GLLRIIPYL; listed as Homo sapiens) [compound 76]
15,″+++″ (≥50 = +++),78 (GLPSFLTEV; listed as Homo sapiens) [compound 78]
16,″+++″ (≥50 = +++),79 (GLQAKIQEA; listed as Homo sapiens) [compound 79]
17,″++″ (≥20% = ++),80 (VLIEDELEEL; listed as Homo sapiens) [compound 80]
18,″+++″ (≥50 = +++),82 (GLQSGVDIGV; listed as Homo sapiens) [compound 82]
19,″+++″ (≥50 = +++),83 (GQGEVLVYV; listed as Homo sapiens) [compound 83]
20,″++″ (≥20% = ++),84 (GVMDVNTAL; listed as Homo sapiens) [compound 84]
21,″++++″ (≥75% = ++++),85 (HLMLHTAAL; listed as Homo sapiens) [compound 85]
22,″++″ (≥20% = ++),87 (HQIEAVDGEEL; listed as Homo sapiens) [compound 87]
23,″+++″ (≥50 = +++),88 (ILDEIGADVQA; listed as Homo sapiens) [compound 88]
